Results as given in article PMC5408928.

Target: yeast 80S ribosome (S. cerevisiae)
Assay: crystal structure

Row | eIF5A-occupancy refinement (%) | Substance
1 | 97 | hypusinated eIF5A from Saccharomyces cerevisiae (from UniProt P23301 1-157) (natural protein)
2 | 88 | unmodified eIF5A from S. cerevisiae (from UniProt P23301 1-157) (natural protein)
